Assay [1] deals with recombinant human VEGF165 protein (human) (UniProt P15692). In words: cell-based or functional assay.
Assay [2] has the same target. In words: streptavidin-coated sensor with immobilized biotin-labeled VEGF165, antibody at several concentrations.
For assay [3] the target is unchanged. Kind of assay: ELISA; coated VEGF165 titrated 0.15-3000 ng/mL, antibody fixed at 1 µg/mL (EC50 is of the coating concentration). On the technique in general: ELISA stands for enzyme-linked immunosorbent assay.
Assay [4] has the same target. Kind of assay: streptavidin-coated sensor with immobilized biotin-labeled VEGF165; reference Avastin.

What is called Kd is a measure of binding affinity in units of concentration. A word on the koff: it is the first-order rate constant of dissociation. In general, kon refers to the second-order rate constant of association. One may read the EC50 as the concentration needed to bring the measured effect to its halfway point.

B1: humanized antibody VEGF-H988 (antibody, human IgG1, kappa, V domains shown)
VH: QSVQESGPGLVKPSETLSLTCTVSGIDLSSYAISWVRQPPGKGLEYIGYIWNDLFTYYASWAKGRVTISVDTSKNQVDLKLSSVTAADTAVYFCARGTLGDYGGMDPWGQGTLVTVSS
VL: ELQLTQSPSSLSASVGDRVTITCQSSKFLWQGRRLAWYQQKPGKVPKLLIYGASTLASGVPSRFKGSGSGTDFTLTISSLQPEDVATYYCAGYKSYDGDVVGFGGGTKVEIKR
As to B1, in assay [1], the EC50(nM), neutralizing VEGF165 at 10 ng/mL, HUVEC proliferation came out at 0.14 nM; the EC50(nM), neutralizing VEGF165 at 10 ng/mL, HUVEC proliferation (run against Avastin) is 0.13 nM; the EC50(nM), neutralizing VEGF165 at 100 ng/mL, HUVEC proliferation is 1.34 nM; the EC50(nM), neutralizing VEGF165 at 100 ng/mL, HUVEC proliferation (run against Avastin) was 1.36 nM. Besides, in assay [1], the EC50(nM), neutralizing VEGF165 at 1000 ng/mL, HUVEC proliferation is 9.67 nM; the EC50(nM), neutralizing VEGF165 at 1000 ng/mL, HUVEC proliferation (run against Avastin) was 9.33 nM; the maximum neutralization rate (%), VEGF165 at 10 ng/mL, HUVEC proliferation was 100%; the maximum neutralization rate (%), VEGF165 at 10 ng/mL, HUVEC proliferation (run against Avastin) worked out at 100%. Besides, in assay [1], the maximum neutralization rate (%), VEGF165 at 100 ng/mL, HUVEC proliferation turned out to be 102%; the maximum neutralization rate (%), VEGF165 at 100 ng/mL, HUVEC proliferation (run against Avastin) came to 102%; the maximum neutralization rate (%), VEGF165 at 1000 ng/mL, HUVEC proliferation was 104%; the maximum neutralization rate (%), VEGF165 at 1000 ng/mL, HUVEC proliferation (run against Avastin) stood at 104%. In addition, in assay [2], the equilibrium dissociation constant (Kd) turned out to be 0.0195 nM, the koff was found to be 6.7e-06 s⁻¹ and the kon was 344000 M⁻¹ s⁻¹. Moreover, in assay [3], the EC50 was determined as 2.42 ng/mL. Moreover, the fold affinity against Avastin in assay [4] stood at 1.5 fold.
